Consider three substances from article PMC5006643.

One may read the Kd as the concentration at which binding is half-saturated. Usually koff stands for the rate constant with which the complex falls apart. Read a high koff as fast dissociation. What is called kon is the rate constant with which the complex forms.

The assay has as its target pV2α-Tys, tyrosine-sulfated 18-mer V2 mimetic peptide (aa. 168-185 of HIV-1 BaL gp120) (HIV-1 (isolate BaL)). Nature of the assay: SPR. A general note: SPR reads the build-up and loss of mass on a sensor chip optically.
Substance “BG505 SOSIP.664 trimer pre-treated with the CD4 mimic CD4-M48U (from UniProt Q2N0S6 1-860; Q2N0S6 1-860) (complex)” came in with a Kd of 161 nM, a koff of 0.005 s⁻¹ and a kon of 31000 M⁻¹ s⁻¹.

Substance “gp120 (BaL) pre-complexed with the CD4 mimic CD4-M48U” registered a Kd of 69.1 nM, an off-rate (koff) of 0.00334 s⁻¹ and a kon of 48300 M⁻¹ s⁻¹.

Regarding “recombinant monomeric gp120 (HIV-1 strain BaL) (natural protein)”, the Kd came out at 79.1 nM, the off-rate (koff) stood at 0.00189 s⁻¹ and the kon is 23900 M⁻¹ s⁻¹.
